Reference: the supplement of paper PMC9170038

Tested on: K4 kissing-loop RNA reporter
Test: apparent KD of K4 kissing-loop reporter; higher = weaker reporter binding
Conditions: Eterna round: R107
Protocol: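 RNA-MaP round R107: designed RNA switches with theophylline, tryptophan, arginine or FMN aptamers are transcribed on-chip within common flanks. They are titrated with a labelled K4 kissing-loop RNA reporter in RNA-MaP buffer (100 mM Tris pH 7.5, 80 mM KCl, 4 mM MgCl2), without ligand or with the indicated ligand. Median apparent KD per design.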

[1] = input ligand: theophylline 20 uM
[2] = input ligand: tryptophan 2.4 mM
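Also: bound reporter read as fluorescence of individual clusters on recovered sequencing chips by microscopy, with normalized cluster intensities fitted with a binding model.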

| Sequence | apparent KD of K4 kissing-loop reporter (input ligand: FMN 200 uM) [nM] | apparent KD of K4 kissing-loop reporter (input ligand: arginine 13.2 mM) [nM] | apparent KD of K4 kissing-loop reporter (input ligand: none) [nM] | apparent KD of K4 kissing-loop reporter [1] [nM] | apparent KD of K4 kissing-loop reporter [2] [nM] |
| --- | --- | --- | --- | --- | --- |
| AAACAUUGGUCGGAUACCAGCUUGAUCGGAAAACGAUCUGCUGGAGUGAUGUUCCAAUAAAGCCCUUGGCAGCCGACCGAUGAAA [MAT - Same State Theophlline B - Mod of Eli - D14] | 814 | 679 | 1070 | 747 | 780 |
| AAAGCAGUAUACUGCAAGACCUAUACUGAUACCAGAGUCAAUUGACUCCCUUGGCAGCGGAUCGAGUGAUGUUCGUAAGGUCAAA [AK4.1 SS Theophylline A] | 498 | 555 | 528 | 734 | 617 |
| AAAUAAUGCAGUCACCCAGUGAUGUUGGAAGGAGCGUGCGAAAGCACAGGUAGGUCGCCAAUAAUGAUAAAGUUCAGUGGCUUUA [JR_Nu_ExcArginiA_Sub030] | 766 | 682 | 454 | 464 | 659 |
| AAAUUGUUUAGAGGAUAUUCUUUAUUCGACAUAACCUUCUAUAAGGUGCAGUGAUGUUGCAAUAUAGGAGAAGGUUGAGUGAUAA [Exclusion FMN B Gf 15] | 135 | 118 | 136 | 121 | 113 |
| AAAUUUUCAAGUGAUACCAGACAUUUCUAUUACAUUAAUAUAGCUAAGUGAUGUUUAGCAGUCCCUUGGCAGCACUAUUUAAUUA [JR_SSTheophyB_Sub014] | 201 | 265 | 253 | 355 | 216 |
| AACCGUGUGGCGGCCGCCACUAGUCUCCAGUGAUGUUGGAGAGAUCACGUAAGUGAUCUCCGACAUAGGACCGGGCCAUAUGGAA [Same State - Tryptophan B (Freestyle 24)] | 509 | 152 | 295 | 351 | 661 |
| AACGCAAGUUGUCUGGUAGACAUUUCAGAUACCAGACAUAGUGAUGUCCCUUGGCAGCUGAACAUCCAGUGAUGUUGGAUACGUU [Theo A SS t11a] | 444 | 394 | 513 | 507 | 400 |
| AACGUAGCUACUGAUACCAGACUUUUUCUUGUAUAUUAGUCAAGUGAUGUUUGACUUUUAGUCCCUUGGCAGCAGUUGCUACGAA [JR_Nu_SSTheophyB_Sub028] | 89.2 | 84.3 | 91.4 | 82.6 | 98.3 |
| AACUCUCAGGCACGCGAGUGAUGUUCGCGCCGAGGACCGGUACGGCCGCCACUCGGGCCUGAGAGAGGUUAUCAAAGAUAGCCAA [whbob_SS_tryp_A] | 306 | 105 | 137 | 204 | 250 |
| AACUUAAUUUAUAAGCAGUGAUGUUGCUUACGAGGACCGGUACGGCCGCCACUCGAUCGCAUUUAUGUCUUCAAUUAAUUCAUUA [JR_ExcTryptoA_Sub016] | 178 | 196 | 197 | 237 | 195 |
| AAGAGGUAGGCGGCCGCCACUAGUUGUGAACACAUACAAGCCAGUGAUGUUGGUAUGGUGGGCGGUAGGACCGGGCCUACCUGAA [Exclusion - Tryptophan B (Freestyle 17)] | 230 | 263 | 257 | 250 | 243 |
| AAGCAGUCACUCGAACCCAUCGAAGAUGGUCGAGGACCGGUACGGCCGCCACUCGGAGUGAUGUUCCGCAGACUGCAAAAUAAAA | 376 | 464 | 426 | 511 | 312 |
| AAGGCAAUUCGAGGAUAUCACAUACACUCCUUGAAUCAAGGAGUGAUGUUCCUUGAAGUGUAUGCAUGAGAAGGCGAAUUGCCUU [#05 K4 FMN B Same State] | 113 | 86.5 | 95.4 | 99.3 | 95.3 |
| AAGGCCACGAGAAGGAGCGUGUUGUGGAGUGAUGUUCCAUUGUAGACCUAAGGUCUACAAGCACAGGUAGGUCGCUCGUGGUCAA [Omei KL Arginine B SS A v5] | 131 | 120 | 132 | 112 | 119 |
| AAGGGCUAGGCGGCCGCCACUGGUCGUGAACACAUACGAGCCAGUGAUGUUGGUAUUGUGUGCGGCAGGACCGGGCCUAGCCGAA [Exclusion - Tryptophan B (Freestyle 24)] | 343 | 338 | 391 | 409 | 462 |
| AAGUAGCUCUCGGCCGCCACUCCUCAGUGAUGUUGAGAUAUUAAGAGCCAAUUGGCUCAUAUAAAGAGGACCGGGAGAGCUACAA [AK4 SS Tryptophan B] | 248 | 276 | 357 | 282 | 128 |
| AAGUCAUAUAGAAGGAGCGUGUUUUUUAAUUUGUUUUCAUGAUCGAGUGAUGUUCGAUAUACACAGGUAGGUCGCUGUAUGAUAA [hbob_SS_Arginine_B_2t143] | 128 | 146 | 130 | 177 | 114 |
| AAGUGAUGUUGUAGUGAUGUUGUGAUGUUGCAGGAUAUAUAGUGAUGUAGAAGGGUAUGUGCAGUUUUCAUAUUUGAGUGUUGAU [mkkhmullin] | 85.2 | 37.6 | 67.1 | 56.5 | 64.2 |
| AAUAAGGAGUGAUGUUCCAAGUGAUGUUAACGAGGACCGGUACGGCCGCCACUCGAUACGGCCGGAAAGUAAGAUAAACUAAAAU [Same State - Tryptophan A (Freestyle 2)] | 61 | 42.8 | 52.3 | 45.5 | 47.2 |
| AAUACAGUACAACCGAGUGGAACACAAAUACGAGGACCGGUACGGCCGCCACUCGUGCAGAAUUUCAGUGAUGUUGAAAUACUGC [Exclusion Tryptophan A GF 6] | 165 | 125 | 122 | 162 | 149 |
| AAUAUCUAGUAUAUAUUUUAUAAAACAGAUACCAGUGAUUAUAUACACCCUUGGCAGCUGGACGAGUGAUGUUCGUAUAUAUUAA [JR_SSTheophyA_Sub008] | 118 | 188 | 147 | 244 | 89 |

| Sequence | apparent KD of K4 kissing-loop reporter (input ligand: FMN 200 uM) [nM] | apparent KD of K4 kissing-loop reporter (input ligand: arginine 13.2 mM) [nM] | apparent KD of K4 kissing-loop reporter (input ligand: none) [nM] | apparent KD of K4 kissing-loop reporter [1] [nM] | apparent KD of K4 kissing-loop reporter [2] [nM] |
| --- | --- | --- | --- | --- | --- |
| AAUGUACAGGGAAGGAGCGUAGUCCAGUGAUGUUGGAAUUAAAUUCCUGCGAUGUUGGUUAUACAGGUAGGUCGCCCUAAAGUGC [KL-XARG-B22] | 367 | 351 | 436 | 497 | 344 |
| AAUUCAGCUAGUGAUGUUAGCGUAGAGUGCAAGGAUAUCCCUGUCAGGAGAAGGUGCGUAGAACGUUUGCCAUCAGAUUGUCCCA [theeternabot_exclusion_KL_FMN_A_48] | 176 | 97.2 | 118 | 104 | 109 |
| AAUUCAGUGAUGUUGGAAGGCAAGCGGGAUACCAGCGGAGAAUAACGCCCUUGGCAGCCCAUAUAUCCCAAAUAGAUAAUAGUUC [Same State - Theophylline A (Freestyle 4)] | 345 | 220 | 279 | 327 | 337 |
| AAUUGAGUGACGGCCGCCACUAGAGUGAUUUUUUUGUUUGAGUGAUGUUUUGAUGUUUGAUGUUGUAGGACCGGGUUGAGUGAUG [vvrvmullin] | 377 | 348 | 386 | 428 | 291 |
| AAUUUAUAUUUGUUCUUCAAAUGUUCAGAAGGAGCGUGAAUUAUCACAGGUAGGUCGCUGGGCUAGUGAUGUUGGCUAUAUACUA [whbob_Ex_Arginine_A_2t126] | 168 | 195 | 195 | 211 | 137 |
| AAUUUAUUAACUGAUACCAGACUUAAUAAAUUUUAAAUCACUAGUGAUGUUAGUGAAUAUGUCCCUUGGCAGCAGUAUUUAUUAA [JR_SSTheophyB_Sub023] | 132 | 134 | 125 | 121 | 115 |
| ACACAGAGUUGCCGAGUGAUGUUCGGCUUACGAGGACCGGUACGGCCGCCACUCGUUACUCUGUGUUUUGGACACCAAGGCGUCG [Tionzaanon] | 651 | 449 | 543 | 505 | 201 |
| ACACUUUACGUAGGAUAUGCGACGAGUGAUGUUCGUCAGGCGGCCUUAGAUUAAACAAGCCGCCUAGCAGAAGGACGGGCAGUGU [Qumatiri] | 133 | 155 | 201 | 154 | 159 |
| ACCUACCAUUAGUGAUGUUAAUGGACGGAAGGAGCGCAGAUAUCUGCAGGUAGGUCGCCGAAGGCUAGACAUUGUCUAGCCAUUU [AK1.3 SS Arginine A] | 192 | 161 | 217 | 155 | 180 |
| ACCUACGAUCACGAAAGUGAUUGUAGGAUCUAGGAUAUGCUGAAGAGCAGAAGGAGAGUGAUGUUCUCAUCUCACGAAAGUGAGA [whbob_Ex_FMNA__2th190] | 437 | 206 | 217 | 245 | 221 |
| ACCUAGUACGUAGGAUAUCGAACAUCAUUUAGUGAGAUCGAGUGAUGUUCGAUCACGUCUUCAGUUCGAGAAGGACGUACUAGGA [FMN B SS t4] | 335 | 273 | 302 | 477 | 351 |
| ACGAAGGAUGGAAGGAGCGCUCGUCAGUCCUGCGAGUGAUGUUCGUGGGUAAAUAUUCGCGAGCAGGUAGGUCGCCAUCUUGAAC [Veticeen] | 146 | 104 | 137 | 121 | 134 |
| ACGCUAGCUACCGAAAGGUAGCUAGCGAGUGAGGAUAUGUGGAAACACAGAAGGCACAGCGCAGUGAUGUUGUGCGGCGAAAGCC [whbob_SS_FMNA__2th166] | 462 | 275 | 418 | 231 | 803 |
| ACGGGCGGCUGAAGGAGCGGGCGGGCCCGAGUGAUGUUCGGGUGGGCCGUGAGGUCCGGAGCCCAGGUAGGUCGCGGUUCCGCCU [#2 Same State - Arginine B Attempt #14 (HarryS)] | 157 | 119 | 152 | 197 | 181 |
| ACGUAGCAGGCGGCCGCCACUCCGCAUAUGGAUCUCGAGUGAUGUUUGAGGGUGCCCAUCACAGCGAGGACCGGGCCAAUUAAGC [theeternabot_sameState_KL_Trp_B_10] | 86.2 | 105 | 127 | 179 | 254 |
| ACGUAUAUCAGAGGAUAUCGUAUUAAUAUUUUAUCUAUAUAUUAUAGCAGUGAUGUUGCAAUUAUUCGAGAAGGCUGAUUUACGA [JR_SSFMNB_Sub023] | 144 | 170 | 139 | 194 | 100 |
| ACGUCCCGUUUACUCGUGGGUUAGGUCGAUACCAGUAUUCAAACUUACCCUUGGCAGCGACAUGAGUGAUGUUCAUGUGCGAAGA [KL-XTheo-A5 #analogue] | 114 | 96.2 | 108 | 108 | 104 |
| ACGUCCGGAUUGAUCGUGGGCAUGGUCGAUACCAGUAGUUUAAUCUACCCUUGGCAGCGACAUGAGUGAUGUUCAUGUGCGAUGA [KL-XTheo-A7 #analogue] | 185 | 164 | 173 | 350 | 185 |
| ACUGGAAUUGUACUCCAGUGAUGUUGGAGGCAGGAUAUCCAGUAAAGGAGAAGGGCCAUCGCGCUAUUUGGCCGCAGGCGGCCAG [Acela] | 147 | 113 | 128 | 177 | 150 |
| AGAAAGAAGGCGGCCGCCACUCUGAUGGGCGAAAGCCCAUUUUUUUAGCAGUGAUGUUGCUUGUUGAGGACCGGGCCAAAGAAAU [2nd] | 179 | 174 | 155 | 193 | 114 |
| AGAACUGUCUGAGAUACCAGCCAUAGGAGUGAUGUUCCUAGCUCCACAAAGUGGAGCCAUGGCCCUUGGCAGCUCAGACAGUUCA [Omei KL Theo B SS A v8] | 219 | 191 | 219 | 133 | 206 |
